Reference: patent US6495137
Where “and” joins values, the source holds several entries; their conditions need not be identical. Equal entries are not always repeated.

Tests used:
[1] = biological target: bovine submaxillary mucin (BSM), TAG-72-positive (bovine); experiment: relative affinity constant, competition RIA on BSM, Scatchard analysis
[2] = biological target: bovine submaxillary mucin (BSM), TAG-72-positive (bovine); experiment: radiolabeled antibody bound to BSM beads
[3] = biological target: bovine submaxillary mucin (BSM), TAG-72-positive (bovine); experiment: competition RIA, 125I-labeled nCC49 as competitor, BSM as target antigen; design: unit not given here

B1: HuCC49* humanized CC49 monoclonal antibody (antibody, V domains shown)
VH: QVQLVQSGAEVVKPGASVKISCKASGYTFTDHAIHWVKQNPGQRLEWIGYFSPGNDDFKYNERFKGKATLTADTSASTAYVELSSLRSEDTAVYFCTRSLNMAYWGQGTLVTVSS
VL: DIVMSQSPDSLAVSLGERVTLNCKSSQSLLYSGNQKNYLAWYQQKPGQSPKLLIYWASARESGVPDRFSGSGSGTDFTLTISSVQAEDVAVYYCQQYYSYPLTFGAGTKLELK
In the case of B1, the Ka [1] is reported as 6e+07 M⁻¹, the percent bound [2] is reported as > 85% and 85% and the amount required for 50% competition [3] is reported as 45.
